Test results as given in patent US20240285753A1 (DUKE UNIVERSITY, published 2024).

T1: S2hlx-Ex6
T1 construct: backbone grafting design
T1 chain: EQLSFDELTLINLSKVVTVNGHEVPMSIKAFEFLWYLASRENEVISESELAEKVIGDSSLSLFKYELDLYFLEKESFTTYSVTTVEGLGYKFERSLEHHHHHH


Assays:
[1] = molecular target: T2, SARS-CoV-2 D614G spike on infected cells (SARS-CoV-2, UniProt P0DTC2 14-1273); assay: flow cytometry on infected Vero E6 cells
T2 construct: whole, on cells

S2hlx-Ex6 = molecular target: T1, S2hlx-Ex6; assay: ELISA, coated antigen, mAb titrated
[2] = molecular target: T2, SARS-CoV-2 D614G spike on infected cells; assay: flow cytometry, infected cells, % infected cells bound

Binder | binding result [1] | other results
DH1501.2 (antibody, V domains shown) VH: EVQLVESGAEVKKPGASVRLSCKASGDTFNNKYVHWVRQAPGQGLEWMGLINPSGSGTAFAQKFQGRVSMTRDTSTRTVYLGLTSLTYEDTAVYYCARMSRAGTFDIWDQGTMVTVSS VL: EIVLTQSPGTLSLSPGDRATLSCRASENVGTSYLAWYQQKPGQAPRLLISGTSSRATGVPDRFSGSGSGRDFTLTISRLEPEDFAVYYCQQYGSSPPRYTFGQGTKLDMK | binds | –
S2P6 mAb (antibody, V domains shown) VH: EVQLVQSGAEVKKPGASVKVSCKASGYTFTSQYMHWVRQAPGQGLEWIGIINPSGVHTSYAQKFQGRVTLTRDTSTSTLYMELSSLRSEDTAVYYCARGSPKGAFDYWGQGTLVTVSS VL: not shown | – | EC50 (read off the curve) (S2hlx-Ex6): ~0.1 µg/mL
DH1501.1 (antibody, V domains shown) VH: EVQLVESGAEVKKPGASVRVSCKASGFTFTDHYMHWVRQAPGQGLEWMGLINPTGVNTFYAQNFRGRVTMTRDTSTKTDYLEVRSLTSQDTAMYYCARMSRYGAFDIWGQGTMVTVSL VL: EIVLTQSPGTLSLSPGERATLSCRASQSVGSGYLAWYQQKPGQAPRLLIYGASVRATGIPDRFSGSGSGTDFSLTINRVEPEDFAMYYCQNYGSSPPRYTFGQGTKLEIK | binds | –
DH1498 (antibody, V domains shown) VH: QVQLQESGPGLVKPSETLSLTCAVSGGSVSSDTYYWSWIRQPPGKGLEWIGYIYNSGSTNYNPSLKSRVTISVDTSKSQFSLNLGSVTAADTAVYYCAREGAGTYPPKNDAFDIWGQGTLVTVSS VL: not shown | – | binding result [2]: no binding (tested: 50 µg/mL)
